Measured values from patent US20210269531A1 (TSINGHUA UNIVERSITY, published 2021).

T1: P75 (Homo sapiens (Human), UniProt P08138 29-250)
T1 construct: also called P75 neurotrophin receptor; P75NTR
T1 sequence: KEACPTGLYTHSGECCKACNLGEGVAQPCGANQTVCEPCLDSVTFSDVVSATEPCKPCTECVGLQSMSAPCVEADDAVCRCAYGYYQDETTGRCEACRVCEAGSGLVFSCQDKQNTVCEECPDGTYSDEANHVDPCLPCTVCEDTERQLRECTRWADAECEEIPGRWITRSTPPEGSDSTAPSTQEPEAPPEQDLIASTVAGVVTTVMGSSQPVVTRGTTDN


Tests used:
[1] = target: human TrkB on CHO cells (hTrkB-CHO cells) (human) (UniProt Q16620); test: cell-based or functional assay
[2] = target: T2, human TrkB on CHO cells (hTrkB-CHO cells) (human, UniProt Q16620 32-822); test: cell-based or functional assay
[3] = target: T3, human TrkB (recombinant protein coated in ELISA / immobilised in Biacore) (human, UniProt Q16620 30-430, limits assumed); test: Biacore T200 SPR, target protein on CM5 chip, antibody in 7 dilutions as fluid phase
T3 construct: also called target protein; antigen
Method: Wash CM5 chip in PBS with sonication. Replace the buffer of candidate antibodies and the target protein with the same PBS. The target protein was diluted to 1 μg/μL as the solid phase and the candidate antibodies were serial diluted to 7 dilutions as the fluid phase. After obtaining the signal, Biacore Evaluation Software was used to create fitting curves. ch2<Rmax/10 indicates good confidence level.
Biacore was used to analyze the affinity of antigen-antibody interaction.

[4] = target: T2, human TrkB on CHO cells (hTrkB-CHO …); test: cell-based or functional assay; remark: listed apart in the source
P75 = target: T1, P75; test: ELISA on coated P75, antibody at 10 nM, 1 nM and 0.1 nM
Method: (§1) TrkB agonist antibodies can bind to TrkB specifically but not bind to TrkA, […], TrkC or P75 in ELISA assay. Data of exemplary antibodies TrkB-agoAb104, TrkB-agoAb202, TrkB-agoAb203, TrkB-agoAb303, TrkB-agoAb1104 and TrkB-agoAb2908 are shown in FIG. 1A-1F. 50 μL of […] protein was coated on each well of the plate, and 50 μL of 10 nM, 1 nM or 0.1 nM antibody was added to perform ELISA assay.

[5] = target: T2, human TrkB on CHO cells (hTrkB-CHO …); test: cell-based or functional assay; remark: listed apart in the source
TrkA = target: T4, TrkA (Homo sapiens (Human), UniProt P04629 33-423); test: ELISA on coated TrkA, antibody at 10 nM, 1 nM and 0.1 nM
T4 construct: also called Tyrosine Receptor A
Method: as §1

[6] = target: T5, TrkB full length (FL, WT) conjugated with GFP, expressed in 293T cells (UniProt Q16620 32-822); test: immunoprecipitation of GFP-tagged full-length and truncated TrkB from 293T lysates; binding domain
T5 construct: whole, on cells; The protein stood in cell lysate, not on whole cells; the numbering of the truncation (366-822) fits human TrkB; not shown: GFP
Method: Cell were washed by cold PBS for 3 times and were lysed in buffer containing 50 mM Tris-HCl (pH 8.0), 250 mM NaCl, 1% NP-40, 0.5% deoxycholate, 0.1% SDS, and protease inhibitors (4693132001, Roche) (Roche Diagnostics) for 20 min on ice. After centrifugation to remove insoluble material, the proteins in lysate incubated with target protein over night at 4° C. 20 μl Protein A beads (sc-2003, Santacruz) were added to the protein mixture. After these mixture incubated for 4-5 h at 4° C., we washed beads for 3 times with lysis buffer. Then the supernatant was removed and 20 μl loading buffer was added to the deposit beads. The beads coupled proteins were denatured and uncoupled by 95° C. heat for 10 min.
Five extracellular domain truncated TrkB constructs were designed as shown in FIG. 2A and transfected to 293T cell for expression respectively. The lysate were collected. Immunoprecipitation was used to test the antibodies that cannot bind to truncated TrkB conjugated with GFP (see FIG. 2B). […] The others such as TrkB-agoAb418 antibody may bind to D5 domain. Δ1 lacks D1 domain (represented by Cys 1), Δ2 lacks D1 and D2 (represented by LAM) domains, Δ3 lacks D1-D3 (represented by Cys 2) domains, Δ4 lacks D1-D4 (represented by Ig1) domains, and Δ5 lacks D1-D5 (represented by Ig2) domains. “TM” represents transmembrane domain, “C” represents control (blank, empty vector). FL represents full length gene (WT).

T4 sequence (P04629 33-423 limits assumed): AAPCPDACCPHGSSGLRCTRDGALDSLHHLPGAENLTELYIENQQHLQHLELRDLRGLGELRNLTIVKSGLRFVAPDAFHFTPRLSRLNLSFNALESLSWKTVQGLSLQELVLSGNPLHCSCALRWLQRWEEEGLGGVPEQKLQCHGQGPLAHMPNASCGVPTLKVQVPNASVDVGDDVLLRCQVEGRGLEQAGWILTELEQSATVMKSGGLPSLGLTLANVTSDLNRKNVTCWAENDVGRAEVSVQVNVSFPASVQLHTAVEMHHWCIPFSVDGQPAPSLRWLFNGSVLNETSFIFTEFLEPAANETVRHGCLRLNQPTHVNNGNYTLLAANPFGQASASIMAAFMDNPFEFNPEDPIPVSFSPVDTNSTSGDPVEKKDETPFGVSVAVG
T5 sequence (Q16620 32-822): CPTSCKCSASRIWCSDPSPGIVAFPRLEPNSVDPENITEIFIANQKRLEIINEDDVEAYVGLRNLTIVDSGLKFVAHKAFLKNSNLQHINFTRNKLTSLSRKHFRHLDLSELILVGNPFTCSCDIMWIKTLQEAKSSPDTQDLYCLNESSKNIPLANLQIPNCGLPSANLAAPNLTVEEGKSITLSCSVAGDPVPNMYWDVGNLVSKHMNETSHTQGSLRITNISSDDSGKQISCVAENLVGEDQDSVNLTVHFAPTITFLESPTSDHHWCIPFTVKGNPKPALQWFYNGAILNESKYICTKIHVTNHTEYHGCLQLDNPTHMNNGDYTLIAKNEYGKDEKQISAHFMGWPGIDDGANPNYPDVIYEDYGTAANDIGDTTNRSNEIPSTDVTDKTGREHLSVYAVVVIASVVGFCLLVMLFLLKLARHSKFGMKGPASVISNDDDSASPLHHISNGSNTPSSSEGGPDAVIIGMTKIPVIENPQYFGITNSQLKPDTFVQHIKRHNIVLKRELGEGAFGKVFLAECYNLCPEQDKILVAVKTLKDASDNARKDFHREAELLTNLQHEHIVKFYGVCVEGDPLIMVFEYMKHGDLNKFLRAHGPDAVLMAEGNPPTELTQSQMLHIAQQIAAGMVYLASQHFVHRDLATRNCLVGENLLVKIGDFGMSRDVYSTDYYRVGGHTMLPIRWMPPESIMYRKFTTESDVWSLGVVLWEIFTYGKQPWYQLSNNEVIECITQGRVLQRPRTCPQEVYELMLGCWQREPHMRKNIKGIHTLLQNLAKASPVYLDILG
T2 sequence (Q16620 32-822): as above
T3 sequence (Q16620 30-430 limits assumed): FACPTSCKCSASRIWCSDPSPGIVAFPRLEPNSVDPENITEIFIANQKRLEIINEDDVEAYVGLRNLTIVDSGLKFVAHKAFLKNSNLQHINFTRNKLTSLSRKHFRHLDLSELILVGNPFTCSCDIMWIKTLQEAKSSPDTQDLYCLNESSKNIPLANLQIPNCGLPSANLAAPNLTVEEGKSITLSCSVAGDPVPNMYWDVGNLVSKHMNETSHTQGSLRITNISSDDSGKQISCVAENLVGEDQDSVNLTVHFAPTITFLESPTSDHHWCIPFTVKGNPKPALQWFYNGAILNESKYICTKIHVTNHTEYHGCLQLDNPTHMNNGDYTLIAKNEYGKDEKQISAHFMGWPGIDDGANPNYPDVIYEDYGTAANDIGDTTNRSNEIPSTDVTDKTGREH
Chain of human TrkB on CHO cells (hTrkB-CHO cells) (human) (Q16620 32-822): as the sequence (Q16620 32-822) above

Molecule | binding result (P75) | binding result (TrkA) | binding result [6] | other results
brain-derived neurotrophic factor (BDNF) (from UniProt P23560 129-247) (ligand) |  |  |  | EC50 of TrkB Try515 phosphorylation, Alphalisa, hTrkB-CHO cells treated 30 min [1]: 1.39 nM
TrkB-agoAb203 (antibody, V domains shown) VH: DVKLVESGGGLVKPGGSLKLSCAASGFTFSSYTMSWVRQTPEKRLEWVATISSGGDYTYFPDSVKGRFTMSRDNAKNALYLQMSSLKSEDTAMYYCTRESGRGDFDYWGQGTTLTVSS VL: DVLMTQTPLSLPVSLGDQASISCRSSQNIVHSNGNTYLEWYLQKPGQSPNLLIYNVSNRFSGVPDRFSGSGSGTDFTLKISRVEAEDLGVYYCFQGSHFPWTFGGGTKLEIT |  |  |  | in vitro half life (T1/2) from the time course of TrkB phosphorylation, Alphalisa, cells treated at EC50 [2]: > 24 h; Kd [3]: 0.0529 nM; EC50 of TrkB Try515 phosphorylation, Alphalisa, hTrkB-CHO cells treated 30 min [4]: 2.84 nM
TrkB-agoAb303 (antibody, V domains shown, Mouse monoclonal antibody) VH: DVKLVESGGGLVKPGGSLKLSCAASGFTFSSYTMSWVRQTPEKRLEWVATISSGGDYTYFPDSVKGRFTMSRDNAKNALYLQMSSLKSEDTAMYYCTRESGRGDFDYWGQGTTLTVSS VL: DVLMTQTPLSLPVSLGDQASISCRSSQNIVHSNGNTYLEWYLQKPGQSPNLLIYNVSNRFSGVPDRFSGSGSGTDFTLKISRVEAEDLGVYYCFQGSHFPWTFGGGTKLEIT | no binding (tested: 10 nM) | no binding (tested: 10 nM) |  | EC50 (read off the curve) [5]: ~1 nM; in vitro half life (T1/2) from the time course of TrkB phosphorylation, Alphalisa, cells treated at EC50 [2]: > 24 h; Kd [3]: 4.02 nM; EC50 of TrkB Try515 phosphorylation, Alphalisa, hTrkB-CHO cells treated 30 min [4]: 1.33 nM
TrkB-agoAb1104 (antibody, IgG1, V domains shown) VH: QVQLQQSGAELARPGASVKLSCKASGYTFTRYWMQWVKQRPGQGLEWIGAIYPGDGDTRYTQKFKGKATLTADKSSSTAYMQLSSLASEDSAVYYCAGSGLGRAWFTYWGQGTLVTVSA VL: DIQMTQSPASLSASVGETVTITCRSSENIYSYLAWYQQKQGKSPQLLVYNAKTLAEGVPSRFSGSGSGTQFSLKINSLQPEDFGSYYCQHHYGPPYTFGGGTKLEIK | no binding (tested: 10 nM) | no binding (tested: 10 nM) | binds | 
TrkB-agoAb2908 (antibody, IgG1, V domains shown) VH: QVQLQQSGPELVKPGASVKISCKASGYTFSSSWMNWVKQRPGQGLEWIGRIYPGDGHTNYNGKFKGKATLTADKSSSTAYMQLTSLTSVDSGVYFCARSGYGYGFDCWGQGTTLTVSS VL: NIVLTQSPASLAVSLGQRATISCRASESVDNYGNSLMHWYQQKPGQPPKLLIYLASNLESGVPARFSGSGSRTDFTLTIDPVEADDAATYYCQQNNEDPPWTFGGGTKLEIKR | no binding (tested: 10 nM) | no binding (tested: 10 nM) |  | 
TrkB-agoAb5702 (antibody, IgG1, V domains shown) VH: DVQLVESGGGLVQPGGSRKLSCAASGFTFSSFGMHWVRQAPEKGLEWVAYITSGSNTIYYADTVKGRFTISRDNPKNTLFLQMTSLRSEDTALYYCARDGYFLDALDYWGQGTSVTVSS VL: DVQITQSPSYLAASPGETITINCRASKSISKYLAWYQEKPGKTNKLLIYSGSTLQSGIPSRFSGSGSGTDFTLTISSLEPEDFAMYYCQQHNEFPLTFGAGTKLELK |  |  | binds | 
TrkB-agoAbB901 (antibody, IgG2, V domains shown, also called TrkB-agoAb901) VH: EVKLVESGGGLVQPGGSLKLSCAASGFDFSRYWMSWVRQAPGKGLEWIGEINPDGSTINYTPSLKDKFIISRDNAKNTLYLQMSKVRSEDTALYYCARGNYYGSSLAWFAYWGQGTLVTVSA VL: DIQMTQSPASQSASLGESVTITCLASQTIGTLLAWYQQKPGKSPQLLIYAATTLADGVPSRFRGSGSGTKFSFKISSLQAEDFVSYYCQQFYSTPYTFGGGTKLEIK |  |  | binds | 
TrkB-agoAb6916 (antibody, V domains shown, Mouse monoclonal antibody) VH: QVQLQQSGTELMKPGASVKISCKAAGYTISSYWVEWVKQRPGHGLEWIGEILPGGGSTNYNEKFKGKATFTADISSNTAYMQLSNLTSEDSAVYYCASSDYWFAYWGQGTLVTVSA VL: QIVLTQSPAIMSASPGEKVTMTCSASSSINYTHWFQQKPGTSPKRWIYDTSKLASGVPVRFSGSGSGTSYSLTISSMEAEDAATYYCHQRSSYPWTFGGGTKLEIK |  |  | binds | 
